Values of other authors, collected in paper PMC8910494.

Target: FICD (Homo sapiens) (UniProt Q9BVA6)

- Kd: 1.2 nM
Substance: FICD (from UniProt Q9BVA6)
